Data taken from publication PMC6363164, “Structural basis of human ORP1-Rab7 interaction for the late-endosome and lysosome targeting” (PLoS ONE, 2019).

Key:
Conditions in all cases: both partners purified
[1] = biological target: T1, human Rab7 (residue 2-195) Q67L Δ73, GTP-bound (human, UniProt P51149 2-195, Q67L | Δ73); assay: crystal structure; ORP1 ANK (5-152) with GTP- and Mg2+-bound Rab7 (2-195) Q67L Δ73; 2.1 Å; two heterodimers in the asymmetric unit
T1 construct: Ras-related protein Rab-7a, human, UniProt P51149, residues 2-195, Q67L and deletion of Leu73 in switch II; 0.5 mM MgCl2 and GTP were added before crystallisation; also called Rab7 Q67L Δ73; Rab7 (Q67L, Δ73); source: E. coli BL21(DE3), purified (Ni-NTA, SEC)
T1 sequence (P51149 other isoform, or with tags, fused parts or gaps Q67L | Δ73 | Q67L | Δ73 | Q67L Q67L): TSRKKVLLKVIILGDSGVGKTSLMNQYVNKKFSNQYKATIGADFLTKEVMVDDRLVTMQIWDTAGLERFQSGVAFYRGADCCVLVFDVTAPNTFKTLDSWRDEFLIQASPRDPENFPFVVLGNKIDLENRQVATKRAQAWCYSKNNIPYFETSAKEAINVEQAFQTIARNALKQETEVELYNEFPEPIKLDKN

[2] = biological target: T2, human Rab7 (residue 2-195) Q67L, GTP-loaded (human, UniProt P51149 2-195, Q67L); assay: ITC; 20 °C; 20 mM Tris-HCl pH 7.5, 150 mM NaCl; 1 mM ORP1 ANK in the syringe, 0.1 mM Rab7 or Rab7-RILP in the cell; Rab7 Q67L with 0.5 mM GTP, Rab7 T22N with 0.5 mM GDP; independent binding model
T2 construct: Ras-related protein Rab-7a, human, UniProt P51149, residues 2-195, dominant active mutant Q67L; Loaded with 0.5 mM GTP for ITC; also called Rab7 Q67L; dominant active Rab7; source: E. coli BL21(DE3), purified (Ni-NTA, SEC)
T2 sequence (P51149 2-195 Q67L): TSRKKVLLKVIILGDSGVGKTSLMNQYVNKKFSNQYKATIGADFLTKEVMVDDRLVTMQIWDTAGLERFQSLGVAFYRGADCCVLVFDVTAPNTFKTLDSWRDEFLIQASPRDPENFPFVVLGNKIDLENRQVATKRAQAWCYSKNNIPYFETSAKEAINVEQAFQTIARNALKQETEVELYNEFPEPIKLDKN

[3] = biological target: T3, human Rab7 (residue 2-195) T22N, GDP-loaded (human, UniProt P51149 2-195, T22N); assay: as above
T3 construct: Ras-related protein Rab-7a, human, UniProt P51149, residues 2-195, dominant negative mutant T22N; Loaded with 0.5 mM GDP for ITC; also called Rab7 T22N; dominant negative Rab7; source: E. coli BL21(DE3), purified (Ni-NTA, SEC)
T3 sequence (P51149 2-195 T22N): as the sequence (P51149 2-195 Q67L) above, with T21N, L66Q counted along it

- binding result [1]: binds
- Kd [2]: 9.3 µM
- stoichiometry N [2]: 1
- binding result [3]: binds
B1: human ORP1 ANK domain (residue 5-152) (domain or fragment, UniProt Q9BXW6-1 5-152, looked up)
chain: AEQQLLHHARNGNAEEVRQLLETMARNEVIADINCKGRSKSNLGWTPLHLACYFGHRQVVQDLLKAGAEVNVLNDMGDTPLHRAAFTGRKELVMLLLEYNADTTIVNGSGQTAKEVTHAEEIRSMLEAVERTQQRKLEELLLAAAREG
notes: The His tag was cut off with thrombin (site LVPR/GS); A longer ANK construct (5-233) was also cloned; also called small ORP1 ANK construct; source: E. coli BL21(DE3), purified (Ni-NTA, SEC); not shown: His6, N-terminal, cleaved
